Laboratory results as given in paper PMC10998906.

Experiments:
Assay in all cases: negative-stain EM
[1] = target: H5/1 GCN4 (IN05 head, PR8 stalk, GCN4-trimerized) (influenza A virus A/Puerto Rico/8/34/Mount Sinai(H1N1) | influenza A virus A/Indonesia/5/2005(H5N1))
[2] = target: H5 GCN4 (IN05 HA, GCN4-trimerized) (influenza A virus A/Indonesia/5/2005(H5N1))
[3] = target: H2/1 GCN4 (SG57 head, PR8 stalk, GCN4-trimerized) (influenza A virus A/Puerto Rico/8/34/Mount Sinai(H1N1) | influenza A virus A/Singapore/1/1957(H2N2))

H5/1 GCN4 (IN05 head, PR8 stalk, GCN4-trimerized) (domain or fragment)
stoichiometry N [1]: 3

H5 GCN4 (IN05 HA, GCN4-trimerized) (domain or fragment)
stoichiometry N [2]: 3

H2/1 GCN4 (SG57 head, PR8 stalk, GCN4-trimerized) (domain or fragment)
stoichiometry N [3]: 3
